*1 amine or outer side, *2 acyl side, *3 side chain or, on linkers, in order; H or OH if unused. Where no end group is shown, it is not given here. Side-chain parts run from the residue outwards. [ ]: non-standard residue; d: D form. The star is where a group is joined. γDab = gamma-linked diaminobutyric acid unit, O=C([C@H](CCN[*:1])N[*:3])[*:2]; C20 diacid = O=C(O)CCCCCCCCCCCCCCCCCCC(=O)*; C18 diacid = O=C(O)CCCCCCCCCCCCCCCCC(=O)*; γGlu = O=C(O)[C@H](CCC(=O)[*:2])N[*:1]; εLys = N[C@@H](CCCCN[*:1])C(=O)[*:2]; dtOrn = not defined here; AEEA = NCCOCCOCC(=O)O; Aib = CC(C)(N)C(=O)O
T1: human neuropeptide Y2 receptor (human, UniProt P49146 1-381)
T1 sequence (looked up): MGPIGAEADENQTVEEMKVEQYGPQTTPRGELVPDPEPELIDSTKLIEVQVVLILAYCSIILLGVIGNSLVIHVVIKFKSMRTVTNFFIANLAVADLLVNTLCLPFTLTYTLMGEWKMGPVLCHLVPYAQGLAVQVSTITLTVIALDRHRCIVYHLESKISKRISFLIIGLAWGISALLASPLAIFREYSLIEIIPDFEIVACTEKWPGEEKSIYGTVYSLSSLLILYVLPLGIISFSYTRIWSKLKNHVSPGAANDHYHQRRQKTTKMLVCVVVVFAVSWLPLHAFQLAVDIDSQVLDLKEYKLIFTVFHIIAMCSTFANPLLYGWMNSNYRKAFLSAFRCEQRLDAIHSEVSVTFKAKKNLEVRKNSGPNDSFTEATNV

T2: human GIP receptor (human, UniProt P48546 22-466)
T2 sequence (looked up): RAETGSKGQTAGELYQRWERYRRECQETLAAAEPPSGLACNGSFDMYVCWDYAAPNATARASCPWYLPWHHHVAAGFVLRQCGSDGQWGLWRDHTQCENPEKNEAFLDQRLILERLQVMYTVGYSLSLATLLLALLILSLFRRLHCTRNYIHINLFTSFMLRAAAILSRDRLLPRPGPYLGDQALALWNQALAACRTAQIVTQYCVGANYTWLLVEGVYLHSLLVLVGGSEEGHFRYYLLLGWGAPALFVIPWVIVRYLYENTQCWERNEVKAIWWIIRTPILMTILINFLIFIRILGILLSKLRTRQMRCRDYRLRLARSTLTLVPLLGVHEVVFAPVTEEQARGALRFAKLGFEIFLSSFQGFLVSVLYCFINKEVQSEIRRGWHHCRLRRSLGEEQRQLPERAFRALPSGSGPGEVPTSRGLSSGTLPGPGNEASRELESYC


How the values were obtained:
Assay in all cases: cell-based or functional assay
human GLP-1 receptor = human GLP-1 receptor (human, UniProt P43220 24-463)
[1] = target: T1, human neuropeptide Y2 receptor
human GIP receptor = target: T2, human GIP receptor

Binder	EC50, CreLuc reporter, 0.5% hP (human GLP-1 receptor) [nM]	EC50, CreLuc reporter, 100% hP (human GLP-1 receptor) [nM]	EC50, CreLuc reporter, 0.5% hP [1] [nM]	EC50, CreLuc reporter, 100% hP [1] [nM]	EC50, CreLuc reporter, 0.5% hP (human GIP receptor) [nM]	EC50, CreLuc reporter, 100% hP (human GIP receptor) [nM]
Y[Aib]EGTFTSDYSI[Aib]LEKQAQ[Aib]AFVRHLINK([γGlu-γGlu-γGlu-γGlu-γGlu-γGlu-C18 diacid])[Aib]TRQRY-NH2 [Compound 134]	1	4	–	–	–	–
Y[Aib]EGTFTSDYSI[Aib]LEKQAE[Aib]AFVRHLINK([εLys-AEEA-γGlu-γGlu-γGlu-γGlu-γGlu-C20 diacid])[Aib]TRQRY-NH2 [Compound 161]	2	5	–	–	–	–
YXEGTFTSDYSIXLEKQAQXAFVRHLINKXTRQRY (Aib at 2, 13, 20, 30; Lys29 epsilon-amino: C20DA-gGlu-gGlu-gGlu-gGlu-gGlu-AHX; C-terminal amide) [Compound 167]	1	18.7	13.3	267	–	–
YXEGTFTSDYSIXLEKEAQXAFVRHLINKXTRQRY (Aib at 2, 13, 20, 30; Lys29 epsilon-amino: C18DA-gGlu-gGlu-gGlu-gGlu-gGlu-gGlu-eLys; C-terminal amide) [Compound 164]	0.6	–	–	–	0.4	–
YXEGTFTSDYSIXLEKQAQXEFVRHLINKXTRQRY (Aib at 2, 13, 20, 30; Lys29 epsilon-amino: C20DA-gGlu-gGlu-gGlu-gGlu-gGlu-gGlu-eLys; C-terminal amide) [Compound 149]	–	3.3	–	166	–	–
YXEGTFTSDYSIXLEKQRQXAFVRHLINKXTRQRY (Aib at 2, 13, 20, 30; Lys29 epsilon-amino: C18DA-gGlu-gGlu-gGlu-gGlu-gGlu-gGlu-eLys; C-terminal amide) [Compound 91]	–	13.7	9.7	45.2	0.8	14.4
YXEGTFTSDYSIXLEKQAEXAFVRHLINKXTRQRY (Aib at 2, 13, 20, 30; Lys29 epsilon-amino: C20DA-gGlu-gGlu-gGlu-gGlu-gGlu-gGlu-eLys; C-terminal amide) [Compound 104]	2	12.9	17.5	129	–	–
YXEGTFTSDYSIXLEKQAQXAFVRHLINKXTRQXY (Aib at 2, 13, 20, 30; dOR at 34; Lys29 epsilon-amino: C18DA-gGlu-gGlu-gGlu-gGlu-gGlu-gGlu-eLys; C-terminal amide) [Compound 90]	2	–	–	–	–	0.6
YXEGTFTSDYSIXLEKQAQXAFVRHLINKXTRQXY (Aib at 2, 13, 20, 30; bhArg at 34; Lys29 epsilon-amino: C18DA-gGlu-gGlu-gGlu-gGlu-gGlu-gGlu-eLys; C-terminal amide) [Compound 146]	1	–	51.5	89.8	–	–
YXEGTFTSDYSIXLEKQAQXAFIRHLINKXTRQRY (Aib at 2, 13, 20, 30; Lys29 epsilon-amino: C20DA-gGlu-gGlu-gGlu-gGlu-gGlu-gGlu-eLys; C-terminal amide) [Compound 109]	0.8	–	–	–	0.3	–
YXEGTFTSDYSIXLEKQAQXAFVRHLINKXTRQRY (Aib at 2, 13, 20, 30; Lys29 epsilon-amino: C20DA-gGlu-gGlu-gGlu-gGlu-gGlu-gGlu-gGlu; C-terminal amide) [Compound 101]	–	20	–	–	1	–
YXEGTFTSDYSIELEKQAQXAFVRHLINKXTRQRY (Aib at 2, 20, 30; Lys29 epsilon-amino: C18DA-gGlu-gGlu-gGlu-gGlu-gGlu-gGlu-eLys; C-terminal amide) [Compound 160]	7.1	27	15.5	28.5	–	–
YXEGTFTSDYSIXLERQAQXAFVRHLINKXTRQRY (Aib at 2, 13, 20, 30; Lys29 epsilon-amino: C18DA-gGlu-gGlu-gGlu-gGlu-gGlu-gGlu-eLys; C-terminal amide) [Compound 124]	0.5	–	–	–	0.1	4
YXEGTFTSDYSIXLEKQAEXAFVRHLINKXTRQRY (Aib at 2, 20, 30; aMeL at 13; Lys29 epsilon-amino: C20DA-gGlu-gGlu-gGlu-gGlu-gGlu-gGlu-eLys; C-terminal amide) [Compound 103]	0.4	0.6	25.9	131	–	–
YXEGTFTSDYSIXLEEQAQXAFVRHLINKXTRQRY (Aib at 2, 20, 30; aMeL at 13; Lys29 epsilon-amino: C20DA-gGlu-gGlu-gGlu-gGlu-gGlu-gGlu-eLys; C-terminal amide) [Compound 89]	0.2	1.7	–	–	–	0.9
YXEGTFTSDYSIXLEKQAQXEFVRHLINKXTRQRY (Aib at 2, 13, 20, 30; Lys29 epsilon-amino: C18DA-gGlu-gGlu-gGlu-gGlu-gGlu-gGlu-eLys; C-terminal amide) [Compound 145]	0.5	1.8	–	94.2	–	–
YXEGTFTSDLSIXLEKQAQXAFVRHLLNKXTRQRY (Aib at 2, 13, 20, 30; Lys29 epsilon-amino: C20DA-gGlu-gGlu-gGlu-gGlu-gGlu-gGlu-eLys; C-terminal amide) [Compound 115]	7	9.8	10.1	107	–	–
YXEGTFTSDYSIXLEKQAQXAFVRHLINKXTRQRY (Aib at 2, 13, 20, 30; Lys29 epsilon-amino: C18DA-gGlu-gGlu-gGlu-gGlu-gGlu-gGlu-eLys; C-terminal amide) [Compound 92]	–	2	–	22.6	–	–
YXEGTFTSDYSIXLEKQAAXAFVRHLINKXTRQRY (Aib at 2, 13, 20, 30; Lys29 epsilon-amino: C18DA-gGlu-gGlu-gGlu-gGlu-gGlu-gGlu-eLys; C-terminal amide) [Compound 111]	4.7	6.1	53.6	77.4	–	–
YXEGTFTSDYSIXLEKQAQXAFVRHLINKXTRQRY (Aib at 2, 13, 20, 30; NMeY at 35; Lys29 epsilon-amino: C18DA-gGlu-gGlu-gGlu-gGlu-gGlu-gGlu-eLys; C-terminal amide) [Compound 116]	2	–	–	–	–	3.4
YXEGTFTSDYSIXLEKQAQXAFIRHLINKXTRQRY (Aib at 2, 13, 20, 30; Lys29 epsilon-amino: C18DA-gGlu-gGlu-gGlu-gGlu-gGlu-gGlu-eLys; C-terminal amide) [Compound 88]	0.2	1.8	–	30.9	0.1	1.7
YXEGTFTSDYSIXLDKQAQXAFVRHLINKXTRQRY (Aib at 2, 13, 20, 30; Lys29 epsilon-amino: C18DA-gGlu-gGlu-gGlu-gGlu-gGlu-gGlu-eLys; C-terminal amide) [Compound 105]	0.3	3.4	19.9	49.6	–	–
YXEGTFTSDYSIXLEKQAQXAFVRALINKXTRQRY (Aib at 2, 13, 20, 30; Lys29 epsilon-amino: C18DA-gGlu-gGlu-gGlu-gGlu-gGlu-gGlu-eLys; C-terminal amide) [Compound 128]	0.7	4	–	–	0.2	5.7
Y[Aib]EGTFTSDYSI[Aib]LEKEAQ[Aib]EFVRHLINK([γGlu-γGlu-γGlu-γGlu-C18 diacid])[Aib]TRQRY-NH2 (N-terminus assumed; SMILES CC[C@H](C)[C@H](NC(=O)[C@H](CC(C)C)NC(=O)[C@H](Cc1c[nH]cn1)NC(=O)[C@H](CCCNC(=N)N)NC(=O)[C@@H](NC(=O)[C@H](Cc1ccccc1)NC(=O)[C@H](CCC(=O)O)NC(=O)C(C)(C)NC(=O)[C@H](CCC(N)=O)NC(=O)[C@H](C)NC(=O)[C@H](CCC(=O)O)NC(=O)[C@H](CCCCN)NC(=O)[C@H](CCC(=O)O)NC(=O)[C@H](CC(C)C)NC(=O)C(C)(C)NC(=O)[C@@H](NC(=O)[C@H](CO)NC(=O)[C@H](Cc1ccc(O)cc1)NC(=O)[C@H](CC(=O)O)NC(=O)[C@H](CO)NC(=O)[C@@H](NC(=O)[C@H](Cc1ccccc1)NC(=O)[C@@H](NC(=O)CNC(=O)[C@H](CCC(=O)O)NC(=O)C(C)(C)NC(=O)[C@@H](N)Cc1ccc(O)cc1)[C@@H](C)O)[C@@H](C)O)[C@@H](C)CC)C(C)C)C(=O)N[C@@H](CC(N)=O)C(=O)N[C@@H](CCCCNC(=O)CC[C@H](NC(=O)CC[C@H](NC(=O)CC[C@H](NC(=O)CC[C@H](NC(=O)CCCCCCCCCCCCCCCCC(=O)O)C(=O)O)C(=O)O)C(=O)O)C(=O)O)C(=O)NC(C)(C)C(=O)N[C@H](C(=O)N[C@@H](CCCNC(=N)N)C(=O)N[C@@H](CCC(N)=O)C(=O)N[C@@H](CCCNC(=N)N)C(=O)N[C@@H](Cc1ccc(O)cc1)C(N)=O)[C@@H](C)O) [Compound 100]	0.2	–	–	–	0.5	–
Y[Aib]EGTFTSDYSI[Aib]LEKQAQ[Aib]AFVRHLINK([dtOrn-γGlu-γGlu-γGlu-γGlu-γGlu-γGlu-C18 diacid])[Aib]TRQRY-NH2 (reading uncertain) [Compound 87]	–	5.6	16.5	–	–	–
Y[Aib]EGTFTSDYSI[Aib]LEKQAQ[Aib]AFVRHLINK([γDab-γGlu-γGlu-γGlu-γGlu-γGlu-γGlu-C18 diacid])[Aib]TRQRY-NH2 [Compound 120]	–	4	23.9	–	–	–
Y[Aib]EGTFTSDLSI[Aib]LEKQAQ[Aib]AFVRHLINK([γGlu-γGlu-εLys-γGlu-γGlu-γGlu-γGlu-C20 diacid])[Aib]TRQRY-NH2 [Compound 166]	8	–	–	–	0.6	–

From patent US20250382344A1, “Soluble GLP1/GIP/NPY2 Receptor Triple Agonists” (Boehringer Ingelheim International GmH, priority 2024, published 2025)
